# Experimental data taken from patent US8956838B2, “Carboxyl esterase polypeptides” (B.R.A.I.N., priority 2006, dated 2015).
# Assays:
# Assay type in all cases: biochemical
# [1] = Enantioselectivity, GC analysis of hydrolysis of acetic acid esters; conditions: for conversion %: ^2 only complete conversion could be measured
# Description: To assay the activity of the enzymes on a range of acetic acid esters gas chromatography was used. The samples were analyzed for the production of chiral alcohols by the gas chromatograph GC-17A (Shimadzu, Duisburg, Germany) equipped with FID detector and CP-Chirasil-DEX CB (Chrompack (Middelburg, Netherlands), 25 m×0.25 mm ID) at a helium flow of 1.3 ml/min. The temperature programme included: 5 min at 60° C., followed by an increase of 5° C. per min until 190° C. was reached. For the GC analysis, activity-tests were run in 1 M Tris buffered solutions and using 10 mM substrates dissolved in DMSO as 0.1 M stock solutions. 2 μg of the enzyme were added and tests incubated over night before the corresponding alcohols could be extracted by treatment with acetic acid ethyl ester and analyzed by GC.
# [2] = Determination of pH optimum by titration; conditions: incubation for up to 48 hours, up to pH 12 (data not shown)
# Description: The pH optimum for the enzymes was determined using tributyrin as substrate. The incubation conditions were 20 ml buffer (2.5 mM phosphate buffer [pH 4-7], 2.5 mM Tris/HCl buffer [pH 7-11] or 2.5 mM glycine buffer [pH 9-11], supplemented with 100 mM NaCl) stirred at a constant temperature of 37° C. The esterase substrate tributyrin (final concentration of 2 mM) was added to 5 ml of the corresponding buffer at 37° C., emulsified and added to the whole preparation. This substrate emulsion was held constant at the correct pH automatically by the titrator (718 STAT Titrino; Metrohm, Herisau, Switzerland) for 2 min and this served as the control. […]
# [3] = Enzyme activity with pNP-acylesters of different chain length; conditions: 4 mM, 45° C., pH 7.2
# Description: Enzyme activity tests were performed by incubating the enzyme with 4 mM substrate at 45° C. in 100 mM Tris-HCl buffer at pH 7.2, unless otherwise indicated. The reaction was measured at 410 nm. One unit is defined as the amount of enzyme catalyzing the appearance of 1 μmol of free p-nitrophenol/min. Enzyme activity against pNP-acylesters (butyrate, valerate, caproate, octanoate, decanoate and palmitate) was tested under the above conditions. […] The enzyme according to SEQ ID NO: 6 converted pNP-caproate with a specific activity of 80.0 U/mg.
# [4] = Substrate specificity on pNP-substrates with importance for pharmaceutical products; conditions: 30 minute, 40° C., pH 7.5
# Description: The substrate range of the two enzymes was determined using pNP esters of the following: benzoate, 2-(4-isobutylphenyl)propanoate (Ibuprofen), 2-phenylpropanoate, 3-phenylbutanoate, cyclohexanoate, 2-(3-benzoylphenyl)propanoate, 2-naphthoate, 1-naphthoate, adamantanoate and 2-(6-methoxynaphthalene-2-yl)propanoate (Naproxen). Activity was determined at 410 nm after 30 minute incubation at 40° C. The reaction mixture was 950 μl buffer (100 mM Tris, pH 7.5), 50 μl substrate (5 mg/ml in DMSO) and 1 μg enzyme.
# [5] = Effect of bivalent cations and EDTA on catalytic activity
# [6] = Solvent stability, residual activity; conditions: for Residual activity after 1 h incubation in the presence of solvent: 1 h at 30° C., measured at 45° C.; for activity in the presence of solvent, levels up to: both concentrations (15% and 30% v/v)
# Description: The stability of the enzymes was determined in the presence of the following solvents: DMSO, isopropanol, methanol, dimethylformamide, acetone and acetonitrile. The enzymes were incubated for 1 hour at 30° C. in the presence of either 15% (v/v) or 30% (v/v) of the solvents and the residual activity was measured at 45° C. The substrate used was pNP-butyrate.
# [7] = Determination of thermal stability
# Description: To assay the thermostability of the enzymes they were incubated at different temperatures for one hour and the residual activity assayed at 10 minute intervals. Residual activity was measured using pNP-caproate as substrate as described above.
# [8] = Titration assay with triglycerides; conditions: 10 mM, 37° C., pH 7.0
# Description: Enzyme activities on the substrates triacetin, tripropionin, tributyrin, tricaprylene, trilaurin and vinyl-substrates (vinyl-acetate, ˜propionate, ˜butyrate, ˜caproate, ˜caprylate and ˜laurate) were determined using a standard titration assay with minor modifications. Tests were performed with a Methrom 718 STAT potentiometric titrator (Herisau, Switzerland) and by using 10 mM NaOH for titration. The substrates at 10 mM concentration were emulsified in 20 ml reaction buffer containing 2 mM Tris/HCl pH 7.0. After addition of 7.5 μg of the purified enzyme the NaOH consumption was recorded at a reaction temperature of 37° C. One unit was defined as the amount of enzyme that released […] of fatty acid per min.
# [9] = substrate Acetic acid ester of tetrahydronaphthylamin
# [10] = substrate acetic acid ester of (+/−)-1-octin-3-ol, 10 mM, over night
# [11] = substrate acetic acid ester of cis-1,2-cyclohexandiol, values marked ^1: substrate conversion after 12 h
# [12] = substrate acetic acid ester of phenylethylamin
# [13] = substrate cis-3,5-diacetoxy-1-cyclopenten
# [14] = substrate isopropylidenglycerolacetate (rac.), values marked ^1: substrate conversion after 12 h
molecule,measurement,setting,value
"EstA3: recombinant enzyme having carboxyl esterase activity, amino acid sequence SEQ ID NO: 2, family VIII of bacterial lipolytic enzymes (protein, metagenomic sequence) MSAEELGFLPDRLARISDHIQTNYLDNGKLPFASLLIGRGDDIALQWSSGVADDAIFRIASMTKPVTSVAFMQLVEQGKVALTDPVAKYIPEFAKLGVFVAGGGNIPFVSRPPTMPMRIVDVLRHTTGFTYSFQERSNIDAAYRKTDVESWTRSTSQSFIDTLAEIPLEFDPGTQWNYSVSTDVLGILIERISGQSLPDYFRDHIFAPLGMVDTCFTVPADKAARIPQCFAFDPATKMKLFDEAGASSLWTKGWSFNSGGGGLASSVADYHRFCRMLLNGGALDGIQIISPKTLELMTANHLPGGQDLTQMSKSLFSEAEMAGIGFGLGFATTIDSVATLTPCSTGDFYWGGMYSTAFFVDPVEDIIMIFMTQLMPSSTYPVRREIKTMIYSALAA","hydrolysis, in words",[1]; acetic acid ester of R-(+)-3-chlor-1-phenyl-1-propanol,capable of hydrolyzing
same,"hydrolysis, in words",[1]; acetic acid ester of rac-1-octin-3-ol,capable of hydrolyzing
same,"hydrolysis, in words",[1]; acetic acid ester of trimethylsilylbutinol,capable of hydrolyzing
same,conversion % of 1.e,[1]; [9],0%
same,conversion % of 2.e,[1]; [9],0%
same,ee %,[1]; substrate acetic acid ester of (+/−)-1-octin-3-ol,12%
same,conversion % of 1.e,[1]; [10],24%
same,conversion % of 2.e,[1]; [10],18%
same,conversion %,[1]; substrate acetic acid ester of R-(+)-3-chlor-1-phenyl-1-propanol,6^2%
same,conversion % of 1.e,[1]; [11],0%
same,conversion % of 2.e,[1]; [11],0%
same,conversion % of 1.e,[1]; [12],0%
same,conversion % of 2.e,[1]; [12],0%
same,conversion % of 2.e,"[1]; substrate acetic acid ester of trans-1,2-cyclohexandiol",0%
same,conversion % of 1.e,"[1]; substrate acetic acid ester of trans-1,2-cyclohexandiol, in text: conversion of the preferred enantiomer",0%
same,conversion %,[1]; substrate acetic acid ester of trimethylsilylbutinol,45^2%
same,conversion % of 2.e,[1]; [13],0%
same,ee %,[1]; [13],100%
same,conversion % of 1.e,"[1]; substrate cis-3,5-diacetoxy-1-cyclopenten, conversion for the preferred enantiomer",24%
same,conversion % of 1.e,[1]; [14],0%
same,conversion % of 2.e,[1]; [14],0%
same,conversion % of 1.e,"[1]; substrate menthylacetate, 1. enantiomer (+)",0%
same,conversion % of 2.e,"[1]; substrate menthylacetate, 2.e. (−)",0%
same,"stability under alkaline conditions, in words",[2],extremely stable with little loss of activity
same,specific activity,[3]; substrate pNP-butyrate (C4),513.6 U/mg
same,specific activity,[3]; substrate pNP-caproate (C6),425.7 U/mg
same,specific activity,[3]; substrate pNP-decanoate (C10),0 U/mg
same,specific activity,[3]; substrate pNP-octanoate (C8),3.6 U/mg
same,specific activity,[3]; substrate pNP-palmitate (C16),0 U/mg
same,specific activity,[3]; substrate pNP-valerate (C5),425.7 U/mg
same,specific activity,[4]; pNP-ester of 1-naphthoate,0 U/mg
same,specific activity,[4]; pNP-ester of 2-(3-benzoylphenyl) propanoate,26.7 U/mg
same,specific activity,[4]; pNP-ester of 2-(4-isobutylphenyl) propanoate (Ibuprofen),7.2 U/mg
same,specific activity,[4]; pNP-ester of 2-(6-methoxy-naphthalen-2-yl) propanoate (Naproxen),26.7 U/mg
same,specific activity,[4]; pNP-ester of 2-naphthoate,0 U/mg
same,specific activity,[4]; pNP-ester of 2-phenylpropanoate,21.0 U/mg
same,specific activity,[4]; pNP-ester of 3-phenylbutanoate,31.6 U/mg
same,specific activity,[4]; pNP-ester of adamantanoate,0 U/mg
same,specific activity,[4]; pNP-ester of benzoate,9.4 U/mg
same,specific activity,[4]; pNP-ester of cyclohexanoate,50.0 U/mg
same,"effect on activity, in words","[5]; Ca^2+, Cu2+, Mg^2+, Zn^2+, Rb^2+ and EDTA",inhibitory effect
same,stimulation of catalytic activity,[5]; in the presence of Co^2+,about 130%
same,Residual activity after 1 h incubation in the presence of solvent,[6]; 15% (v/v) Acetone,152%
same,Residual activity after 1 h incubation in the presence of solvent,[6]; 15% (v/v) Acetonitrile,110%
same,Residual activity after 1 h incubation in the presence of solvent,[6]; 15% (v/v) DMSO,102%
same,Residual activity after 1 h incubation in the presence of solvent,[6]; 15% (v/v) Dimethylformamid,125%
same,Residual activity after 1 h incubation in the presence of solvent,[6]; 15% (v/v) Isopropanol,155%
same,Residual activity after 1 h incubation in the presence of solvent,[6]; 15% (v/v) Methanol,111%
same,Residual activity after 1 h incubation in the presence of solvent,[6]; 30% (v/v) Acetone,155%
same,Residual activity after 1 h incubation in the presence of solvent,[6]; 30% (v/v) Acetonitrile,87%
same,Residual activity after 1 h incubation in the presence of solvent,[6]; 30% (v/v) DMSO,104%
same,Residual activity after 1 h incubation in the presence of solvent,[6]; 30% (v/v) Dimethylformamid,128%
same,Residual activity after 1 h incubation in the presence of solvent,[6]; 30% (v/v) Isopropanol,117%
same,Residual activity after 1 h incubation in the presence of solvent,[6]; 30% (v/v) Methanol,130%
same,"activity in the presence of solvent, levels up to",[6]; acetone,≤ 155%
same,"activity in the presence of solvent, levels up to",[6]; dimethylformamide,up to 128%
same,"thermal stability, in words",[7]; incubated for at least 60 minutes at 40° C.,without a major loss of activity
same,"thermal stability, in words",[7]; incubation at temperatures above 45° C. for more than 60 minutes (data not shown),rapid inactivation
same,specific activity,[8]; substrate triacetin (C2),147.5 U/mg
same,specific activity,[8]; substrate tributyrin (C4),167.5 U/mg
